From IntAct's records for PubMed 31515488 come the findings set out here.

The target of assay [1] is efs_human EFS (UniProt O43281).
The target in assay [2] is mtus2_human MTUS2 (UniProt Q5JR59).
Assay [3] has as its target zc4h2_human ZC4H2 (UniProt Q9NQZ6).
Assay [4] addresses cep70_human CEP70 (UniProt Q8NHQ1).
The target of assay [5] is tri41_human TRIM41 (UniProt Q8WV44).
Assay [6] concerns the target cc136_human CCDC136 (UniProt Q96JN2).
For assay [7], the target named is nup50_human NUP50 (UniProt Q9UKX7).
Assay [8] concerns the target an32b_human ANP32B (UniProt Q92688).
Assay [9] concerns the target spopl_human SPOPL (UniProt Q6IQ16).
The target in assay [10] is kr101_human KRTAP10-1 (UniProt P60331).
In assay [11] the target is fund1_human FUNDC1 (UniProt Q8IVP5).
In assay [12] the target is cep70_human CEP70 (UniProt Q8NHQ1). This is another data set of the same source.
The target in assay [13] is nasp_human NASP (UniProt P49321).
For assay [14], the target named is kcc2d_human CAMK2D (UniProt Q13557).
Assay [15] deals with thap1_human THAP1 (UniProt Q9NVV9).
The target of assay [16] is tom1_human TOM1 (UniProt O60784).
The target of assay [17] is mdfi_human MDFI (UniProt Q99750).
Assay [18] deals with lhx8_human LHX8 (UniProt Q68G74).
Assay [19] has as its target fhl3_human FHL3 (UniProt Q13643).
In assay [20] the target is traf2_human TRAF2 (UniProt Q12933).
Assay [21] has as its target rtraf_human RTRAF (UniProt Q9Y224).
The target of assay [22] is kr101_human KRTAP10-1 (UniProt P60331). The source holds these as a separate data set.
For assay [23], the target named is tb22b_human TBC1D22B (UniProt Q9NU19).
In assay [24] the target is ap2m1_human AP2M1 (UniProt Q96CW1).
The target in assay [25] is lcp2_human LCP2 (UniProt Q13094).
Assay [26] has as its target ptps_human PTS (UniProt Q03393).
Assay [27] deals with pram_human PRAM1 (UniProt Q96QH2).
In assay [28] the target is frih_human FTH1 (UniProt P02794).
The target of assay [29] is phs_human PCBD1 (UniProt P61457).
The target in assay [30] is cdkl3_human CDKL3 (UniProt Q8IVW4).
For assay [31], the target named is scel_human SCEL (UniProt O95171).
Assay [32] deals with FBP1 (UniProt P09467).
Assay [33] has as its target T1, nqo2_human NQO2 (UniProt P16083).
T1 sequence: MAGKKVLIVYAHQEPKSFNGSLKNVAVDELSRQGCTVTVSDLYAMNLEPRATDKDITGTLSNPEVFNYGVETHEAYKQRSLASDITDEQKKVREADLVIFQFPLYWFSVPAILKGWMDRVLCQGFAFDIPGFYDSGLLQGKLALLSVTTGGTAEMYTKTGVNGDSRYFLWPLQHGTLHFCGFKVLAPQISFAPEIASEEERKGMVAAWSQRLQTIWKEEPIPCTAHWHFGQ

Assay [34] concerns the target stox1_human STOX1 (UniProt Q6ZVD7).
Assay [35] has as its target rgs3_human RGS3 (UniProt P49796).
Assay [36] addresses ubql1_human UBQLN1 (UniProt Q9UMX0).
In assay [37] the target is cep70_human CEP70 (UniProt Q8NHQ1). This is another data set of the same source.
The target in assay [38] is tri41_human TRIM41 (UniProt Q8WV44). This is another data set of the same source.
Assay [39] has as its target ptbp2_human PTBP2 (UniProt Q9UKA9).
Assay [40] has as its target snrpa_human SNRPA (UniProt P09012).
Assay [41] concerns the target gt253_human CERCAM (UniProt Q5T4B2).
Assay [42] concerns the target T2, mycd_human MYOCD (UniProt Q8IZQ8).
T2 sequence: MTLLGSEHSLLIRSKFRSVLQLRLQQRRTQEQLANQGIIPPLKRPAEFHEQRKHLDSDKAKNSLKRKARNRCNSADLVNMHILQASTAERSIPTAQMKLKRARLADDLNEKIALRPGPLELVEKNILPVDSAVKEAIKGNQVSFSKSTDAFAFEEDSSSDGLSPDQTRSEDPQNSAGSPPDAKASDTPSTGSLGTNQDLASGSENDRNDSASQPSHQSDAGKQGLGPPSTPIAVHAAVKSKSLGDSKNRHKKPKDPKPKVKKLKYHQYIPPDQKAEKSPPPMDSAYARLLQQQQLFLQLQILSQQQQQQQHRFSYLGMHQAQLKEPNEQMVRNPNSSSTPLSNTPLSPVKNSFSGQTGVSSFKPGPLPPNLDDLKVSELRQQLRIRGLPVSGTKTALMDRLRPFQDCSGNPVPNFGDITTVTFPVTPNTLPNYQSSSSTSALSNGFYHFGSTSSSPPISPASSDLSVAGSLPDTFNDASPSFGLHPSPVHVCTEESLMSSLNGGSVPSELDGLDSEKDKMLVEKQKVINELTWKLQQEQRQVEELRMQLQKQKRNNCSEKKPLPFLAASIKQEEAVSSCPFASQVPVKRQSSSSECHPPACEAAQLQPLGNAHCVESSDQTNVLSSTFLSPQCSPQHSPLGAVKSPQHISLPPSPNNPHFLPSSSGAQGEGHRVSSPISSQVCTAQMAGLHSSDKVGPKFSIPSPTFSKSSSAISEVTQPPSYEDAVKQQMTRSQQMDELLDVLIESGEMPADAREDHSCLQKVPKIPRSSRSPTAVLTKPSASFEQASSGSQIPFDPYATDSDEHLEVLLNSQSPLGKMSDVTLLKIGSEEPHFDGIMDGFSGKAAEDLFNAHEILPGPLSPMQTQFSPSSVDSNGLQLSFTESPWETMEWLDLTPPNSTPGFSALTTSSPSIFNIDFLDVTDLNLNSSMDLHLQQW

The target of assay [43] is T3, fosl2_human FOSL2 (UniProt P15408).
T3 sequence: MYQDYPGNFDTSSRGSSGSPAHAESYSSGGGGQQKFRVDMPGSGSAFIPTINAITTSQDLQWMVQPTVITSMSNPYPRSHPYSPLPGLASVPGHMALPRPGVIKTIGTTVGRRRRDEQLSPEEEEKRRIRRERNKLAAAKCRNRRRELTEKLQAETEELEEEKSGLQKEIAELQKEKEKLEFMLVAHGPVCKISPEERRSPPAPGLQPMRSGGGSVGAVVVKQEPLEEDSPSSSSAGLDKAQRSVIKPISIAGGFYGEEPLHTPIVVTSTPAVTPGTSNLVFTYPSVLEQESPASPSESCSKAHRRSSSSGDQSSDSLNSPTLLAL

For assay [44], the target named is vtnc_human VTN (UniProt P04004).
In assay [45] the target is pdli7_human PDLIM7 (UniProt Q9NR12).
Assay [46] concerns the target leg9b_human LGALS9B (UniProt Q3B8N2).
Assay [47] deals with anr44_human ANKRD44 (UniProt Q8N8A2).

Turning to “Tyrosine-protein kinase Fyn (Homo sapiens), P06241-3 V410M”, the “effect of a mutation on the interaction” value in assay [1] was “with no effect”.

In the case of “Zinc finger protein 490 (Homo sapiens), Q9ULM2 E419K”, the “effect of a mutation on the interaction” value in [2], in [3], in [4], in [5] and in assay [6] was “with no effect” throughout.

Consider “Importin subunit alpha-6 (Homo sapiens), O15131 F48L”, for which the “effect of a mutation on the interaction” value in [7], in assay [8] and in assay [9] was “with no effect” each time.

Turning to “Zinc finger protein 264 (Homo sapiens), O43296 G166D”, the “effect of a mutation on the interaction” value in assay [10] is recorded as “with no effect”.

With “Tyrosine-protein kinase Yes (Homo sapiens), P07947 V52L”, the “effect of a mutation on the interaction” value in assay [11] is on record as “with no effect”.

On to “Zinc finger protein 227 (Homo sapiens), Q86WZ6 P249S”, for which the “effect of a mutation on the interaction” value in assay [12] is given as “with no effect”.

On to “Histone H3.1 (Homo sapiens) (from UniProt P68431) A128G”, for which the “effect of a mutation on the interaction” value in assay [13] is on record as “with no effect”.

With “Large ribosomal subunit protein uL11m (Homo sapiens) (from UniProt Q9Y3B7) R142C”, the “effect of a mutation on the interaction” value in assay [14] and in assay [15] was “with no effect” in each case.

In the case of “Toll-interacting protein (Homo sapiens) (from UniProt Q9H0E2) I264V”, the “effect of a mutation on the interaction” value in assay [16] was “with no effect”.

Take “Nuclear transition protein 2 (Homo sapiens), Q05952 R131W”: in assay [17], the “effect of a mutation on the interaction” value is “with no effect”.

For “Isoform 1 of Krueppel-like factor 3 (Homo sapiens), P57682-1 C322F”, the “effect of a mutation on the interaction” value in [18], in [19] and in assay [20] was “disrupting interaction strength” in each case.

As for “Protein FAM98A (Homo sapiens), Q8NCA5 S283G”, the “effect of a mutation on the interaction” value in assay [21] was “with no effect”.

For the substance “Zinc finger protein 559 (Homo sapiens), Q9BR84 L6W”, the “effect of a mutation on the interaction” value in assay [22] is recorded as “with no effect”.

Consider “RNA-binding protein FXR2 (Homo sapiens), P51116 K651E”, for which the “effect of a mutation on the interaction” value in assay [23], in assay [24], in assay [25], in assay [26], in assay [27] and in assay [28] was “with no effect” throughout. Also, the “effect of a mutation on the interaction” value in [29] is “with no effect”; in [30] it was “with no effect”; in [31], “with no effect”; in [32], “disrupting interaction strength”.

As to “Golgi reassembly-stacking protein 2 (Homo sapiens) (from UniProt Q9H8Y8) S432F”, the “effect of a mutation on the interaction” value in assay [33], in assay [34] and in assay [35] was “with no effect” throughout.

Regarding “Frizzled-7 (Homo sapiens) (from UniProt O75084) P285S”, the “effect of a mutation on the interaction” value in [36] was “with no effect”.

“Zinc finger protein 329 (Homo sapiens), Q86UD4 N182D”: the “effect of a mutation on the interaction” value in assay [37] and in assay [38] was “with no effect” throughout.

Consider “Polypyrimidine tract-binding protein 1 (Homo sapiens), P26599 A173T”, for which the “effect of a mutation on the interaction” value in assay [39] and in [40] was “with no effect” throughout.

For “Golgi-associated PDZ and coiled-coil motif-containing protein (Homo sapiens) (from UniProt Q9HD26) L123V”, the “effect of a mutation on the interaction” value in assay [41], in [42], in assay [43] and in [44] was “with no effect” in each case.

Take “NEDD4-like E3 ubiquitin-protein ligase WWP2 (Homo sapiens), O00308 R315C”: the “effect of a mutation on the interaction” value in assay [45], in assay [46] and in [47] was “with no effect” throughout.
